Test results from US20160257760A1 (OXFORD BIOTHERAPEUTICS, published 2016).

What was measured:
[1] = molecular target: T1, CYKVFHAE; experiment: peptide microarray, 1 µg/mL LY75_A1, anti-human IgG Alexa 647
T1 peptide: CYKVFHAE
Description: (§1) The chip comprised three panels such that the experiment was performed in triplicate. […] The binding assay was performed under the following conditions:—The microarray comprising the contiguous peptides in triplicate was washed with 1 mL of binding buffer at 4° C. for 20 min. […] The array was again washed with 0.5 mL of washing buffer at 4° C. for 30 min.

[2] = molecular target: T2, LSCYKVFH; experiment: as above
T2 peptide: LSCYKVFH
Description: as §1

[3] = molecular target: T3, SCYKVFHA; experiment: as above
T3 peptide: SCYKVFHA
Description: as §1

[4] = molecular target: T4, SLSCYKVF; experiment: as above
T4 peptide: SLSCYKVF
Description: as §1

[5] = molecular target: T5, HCYKSDQA; experiment: as above
T5 peptide: HCYKSDQA
Description: as §1

[6] = molecular target: T6, YKGHCYKS; experiment: as above
T6 peptide: YKGHCYKS
Description: as §1

[7] = molecular target: T7, YKSDQALH; experiment: as above
T7 peptide: YKSDQALH
Description: as §1

[8] = molecular target: T8, QYKGHCYK; experiment: as above
T8 peptide: QYKGHCYK
Description: as §1

[9] = molecular target: T9, GSRWIQYK; experiment: as above
T9 peptide: GSRWIQYK
Description: as §1

[10] = molecular target: T10, RWIQYKGH; experiment: as above
T10 peptide: RWIQYKGH
Description: as §1

[11] = molecular target: T11, SRWIQYKG; experiment: as above
T11 peptide: SRWIQYKG
Description: as §1

[12] = molecular target: T12, CYKSDQAL; experiment: as above
T12 peptide: CYKSDQAL
Description: as §1

[13] = molecular target: T13, NGSRWIQY; experiment: as above
T13 peptide: NGSRWIQY
Description: as §1

[14] = molecular target: T14, WIQYKGHC; experiment: as above
T14 peptide: WIQYKGHC
Description: as §1

[15] = molecular target: T15, KSDQALHS; experiment: as above
T15 peptide: KSDQALHS
Description: as §1

[16] = molecular target: Contiguous 8mer peptides of LY75 protein spanning residues 216 to 1666 of the full length LY75 protein (peptide microarray); experiment: peptide microarray, 1 ug/mL LY75_A1, anti-human IgG Alexa 647, scan at 635 nm
[17] = molecular target: T16, LY75 tryptic peptide GWHFYDDR (765-772); experiment: peptide microarray, 1 µg/mL LY75_A1, anti-human IgG Alexa 647
T16 construct: Tryptic peptide of recombinant LY75, eluted from LY75_A1 beads and identified by LC-MS/MS
T16 peptide: GWHFYDDR
Description: as §1

[18] = molecular target: T17, PWRRGWHF; experiment: as above
T17 peptide: PWRRGWHF
Description: as §1

[19] = molecular target: T18, DREFIYLR; experiment: as above
T18 peptide: DREFIYLR
Description: as §1

[20] = molecular target: T19, YDDREFIY; experiment: as above
T19 peptide: YDDREFIY
Description: as §1

[21] = molecular target: T20, RRGWHFYD; experiment: as above
T20 peptide: RRGWHFYD
Description: as §1

[22] = molecular target: T21, EFIYLRPF; experiment: as above
T21 peptide: EFIYLRPF
Description: as §1

[23] = molecular target: T22, KKLSRLTY; experiment: as above
T22 peptide: KKLSRLTY
Description: as §1

[24] = molecular target: T23, KLSRLTYS; experiment: as above
T23 peptide: KLSRLTYS
Description: as §1

[25] = molecular target: T24, LSRLTYSS; experiment: as above
T24 peptide: LSRLTYSS
Description: as §1

[26] = molecular target: T25, EVKDCRSF; experiment: as above
T25 peptide: EVKDCRSF
Description: as §1

[27] = molecular target: T26, RSFKALSI; experiment: as above
T26 peptide: RSFKALSI
Description: as §1

[28] = molecular target: T27, LY75 (DEC-205) on COLO205 cells (human, UniProt O60449 28-1722); experiment: competitive FACS on COLO205 cells
T27 construct: Endogenous LY75 on COLO205 human colorectal adenocarcinoma cells; also called Lymphocyte antigen 75
T27 sequence (O60449 28-1722 limits assumed): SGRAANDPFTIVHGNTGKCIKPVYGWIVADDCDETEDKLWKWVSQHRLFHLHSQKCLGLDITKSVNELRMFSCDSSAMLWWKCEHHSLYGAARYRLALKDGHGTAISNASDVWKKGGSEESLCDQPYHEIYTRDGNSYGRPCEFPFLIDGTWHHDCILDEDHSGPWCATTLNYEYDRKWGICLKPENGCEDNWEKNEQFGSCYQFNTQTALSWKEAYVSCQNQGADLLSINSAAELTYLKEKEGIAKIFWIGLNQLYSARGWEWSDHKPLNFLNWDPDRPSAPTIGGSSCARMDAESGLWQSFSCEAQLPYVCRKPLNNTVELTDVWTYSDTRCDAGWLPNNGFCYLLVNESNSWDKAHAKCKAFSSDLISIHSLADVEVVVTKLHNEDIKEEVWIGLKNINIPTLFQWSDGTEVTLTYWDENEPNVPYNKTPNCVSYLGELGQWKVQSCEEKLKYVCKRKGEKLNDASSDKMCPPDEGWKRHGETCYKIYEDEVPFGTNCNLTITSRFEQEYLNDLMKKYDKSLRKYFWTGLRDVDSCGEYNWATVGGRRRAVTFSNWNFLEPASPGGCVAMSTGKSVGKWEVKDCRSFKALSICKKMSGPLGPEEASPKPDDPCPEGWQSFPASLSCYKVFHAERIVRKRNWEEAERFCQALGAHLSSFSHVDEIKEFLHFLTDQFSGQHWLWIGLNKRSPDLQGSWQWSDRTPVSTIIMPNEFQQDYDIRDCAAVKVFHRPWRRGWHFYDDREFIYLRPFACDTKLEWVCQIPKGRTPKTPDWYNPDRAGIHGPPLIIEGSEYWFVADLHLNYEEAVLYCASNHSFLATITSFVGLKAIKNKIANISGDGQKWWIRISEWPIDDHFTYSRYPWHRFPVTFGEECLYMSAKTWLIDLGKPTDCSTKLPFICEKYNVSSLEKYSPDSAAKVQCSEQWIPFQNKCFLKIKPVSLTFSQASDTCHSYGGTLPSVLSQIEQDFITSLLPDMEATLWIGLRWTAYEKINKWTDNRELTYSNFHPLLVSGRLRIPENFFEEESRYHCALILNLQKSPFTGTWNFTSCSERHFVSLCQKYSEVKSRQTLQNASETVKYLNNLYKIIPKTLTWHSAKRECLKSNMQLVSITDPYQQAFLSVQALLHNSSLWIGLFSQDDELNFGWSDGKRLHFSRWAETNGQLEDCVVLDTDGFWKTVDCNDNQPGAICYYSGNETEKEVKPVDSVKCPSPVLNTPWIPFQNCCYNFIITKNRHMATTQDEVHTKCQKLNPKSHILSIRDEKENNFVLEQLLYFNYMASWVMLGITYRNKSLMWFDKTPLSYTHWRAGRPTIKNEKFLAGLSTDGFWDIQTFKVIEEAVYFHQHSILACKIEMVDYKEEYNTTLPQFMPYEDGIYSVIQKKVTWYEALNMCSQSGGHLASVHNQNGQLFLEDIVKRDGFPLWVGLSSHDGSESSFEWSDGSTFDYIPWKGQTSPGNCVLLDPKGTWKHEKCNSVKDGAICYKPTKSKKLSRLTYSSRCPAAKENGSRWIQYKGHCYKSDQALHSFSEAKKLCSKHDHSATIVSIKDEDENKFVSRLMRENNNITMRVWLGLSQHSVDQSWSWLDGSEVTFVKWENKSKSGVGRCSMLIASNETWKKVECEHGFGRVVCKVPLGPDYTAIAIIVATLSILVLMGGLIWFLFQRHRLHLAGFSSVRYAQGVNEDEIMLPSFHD
Description: Cells were washed and resuspended in FACS buffer (PBS+2% FBS), neutralized with growth media, and counted. Cells were plated at 50,000 cells per well in a V Bottom 96-well plate. Cells were washed once with FACS buffer (PBS (Fisher, catalog # SH30028-03)+2% FBS). […] Test wells that required single or multiple staining steps were left in FACS buffer as appropriate to ensure the final staining was completed simultaneously for all conditions tested. Two wells were left unstained in FACS buffer as controls.
After the incubation with blocking antibody, cells were washed twice in FACS buffer. […] The cells were washed as above and resuspended in FACS buffer plus 1 ug/ml mouse anti-maytansine antibody and incubated in ice for 45 minutes. The cells were washed as above and resuspended in FACS buffer containing 2 ug/ml goat anti-mouse kappa RPE. The cells were incubated on ice for 45 minutes then washed as above. The cells were resuspended in FACS buffer at 200 ul per well. Mean fluorescence intensity of each sample was determined using a Guava EasyCyte Plus HT Flow Cytometer (96 well plate formats) and the raw data was analyzed using the Guava Cytosoft.

[29] = molecular target: T28, YSNFHPLL; experiment: peptide microarray, 1 µg/mL LY75_A1, anti-human IgG Alexa 647
T28 peptide: YSNFHPLL
Description: as §1

[30] = molecular target: T29, TYSNFHPL; experiment: as above
T29 peptide: TYSNFHPL
Description: as §1

[31] = molecular target: T30, LTYSNFHP; experiment: as above
T30 peptide: LTYSNFHP
Description: as §1

[32] = molecular target: T31, ELTYSNFH; experiment: as above
T31 peptide: ELTYSNFH
Description: as §1

[33] = molecular target: T32, FVSLCQKY; experiment: as above
T32 peptide: FVSLCQKY
Description: as §1

B1: LY75_A1 monoclonal antibody (antibody, V domains shown)
VH: EVQLVESGGGLVKPGGSLRLSCAASGFTYSNAWMSWVRQAPGKGLEWVGRIKSKTDGGTTDYAAPVQGRFTISRDDSKNTLYLQMNSLKTEDTAVYYCTIFGVVSFDYWGQGTLVTVSS
VL: DVQMTQSPSSLSASVGDRVTITCRASQSISDYLSWYQQRPGKAPNLLIYAASNLKTGVPSRFSGSGSGTDFTLTISTLQPEDFATYYCQQSYRSPWTFGQGTKVEIKR
notes: also called LY75A1 antibody; LY75_A1 antibody
25000: maximum signal intensity (signal intensity (scale 1-65535)) [16]
885: average signal for all spots on the array (signal intensity (scale 1-65535)) [16]
binds: binding result [2] | binding result [3] | binding result [4] | binding result [6] | binding result [7] | binding result [8] | binding result [9] | binding result [10] | binding result [11] | binding result [13] | binding result [17] | binding result [18] | binding result [19] | binding result [20] | binding result [21] | binding result [22] | binding result [23] | binding result [24] | binding result [25] | binding result [26] | binding result [28] | binding result [29] | binding result [30] | binding result [31] | binding result [32] | binding result [33]
no binding (tested: 1 µg/mL): binding result [1] | binding result [5] | binding result [12] | binding result [14] | binding result [15] | binding result [27]
